Like-named read-outs stand apart in the source and are kept apart here.

What all share (assay): co-sedimentation
The target of experiment [1] is Taxol-stabilized microtubules (polymerized porcine brain tubulin) (porcine (purified from brain)) (UniProt P02550).
Experiment [2] deals with mDia1-FH1FH2C (mouse, amino acids 548-1255) (mouse) (UniProt O08808).
For experiment [3], the target named is INF2-FH1FH2 (human, 469-941) (human) (UniProt Q27J81).
The target of experiment [4] is mDia2-FH1FH2C (mouse, 521-1171) (mouse) (UniProt Q9Z207).
Experiment [5] concerns the target Taxol-stabilized microtubules (polymerized porcine brain tubulin) (porcine (purified from brain)) (UniProt P02550). The source holds these as a separate data set.

In experiment [1], “GST-mDia1-Cterm (1149-1255) (from UniProt O08808 1149-1255) (domain or fragment)” gave a Kd above 20 µM.
As for “LatB-stabilized actin monomers (rabbit skeletal muscle actin) (from UniProt P68135 1-377) (natural protein)”, the percent of the actin in the pellet in experiment [2], in experiment [3] and in experiment [4] was 10% throughout.
In the case of “GST-mDia2-Cterm (1009-1171) (from UniProt Q9Z207 1009-1171) (domain or fragment)”, in experiment [5], the dissociation constant Kd came out at 0.71 µM. Further, in experiment [1], the Kd stood at 710 µM and the stoichiometry N (tubulin dimer:formin dimer) turned out to be 0.6.
For the substance “GST-INF2-Cterm (human CAAX variant, 941-1249) (from UniProt Q27J81 941-1249) (domain or fragment)”, the Kd in experiment [1] was above 20 µM.
For the substance “mDia1-FH1FH2C (mouse, amino acids 548-1255) (from UniProt O08808 548-1255) (domain or fragment)”, the stoichiometry N (tubulin dimer:formin dimer) in experiment [1] stood at 3.09.

Values taken from PMC3226476.
